Reference: patent US20130236430A1, “PROLIFERATION, SEPARATION AND TRANSPLANTATION OF INHIBITORY NEURON PROGENITORS AND PROLIFERATION PROMOTING SUBSTANCES FOR THE PROGENITORS” (priority 2010, published 2013)

B1: Activin A (protein, UniProt P08476 311-426, looked up)
Inhibin beta A chain: GLECDGKVNICCKKQFFVSFKDIGWNDWIIAPSGYHANYCEGECPSHIAGTSGSSLSFHSTVINHYRMRGHSPFANLKSCCVPTKLRPMSMLYYDDGQNIIKKDIQNMIVEECGCS
modifications: Inhibin beta A chain

How the values were obtained:
[1] = Infusion of peroxidase tracer protein into the cistern magna, distribution visualized by DAB reaction; assay type: in vivo; details: infused into cistern magna of mouse, formalin fixing after 30 minutes; FIG. 12
Text: In the case of the microperoxidase being not able to penetrate, a barrier corresponding to the blood brain barrier is judged to be present.
It has already discussed that the most of the inhibitory neuron progenitors were distributed to the proximity to the brain surface or the subventricular zone. In order to establish a technique for delivering Activin A to the proximity to the brain surface or the subventricular zone, a protein which can readily be detected was employed instead of Activin A itself in a monitoring experiment. The protein employed was a microperoxidase which was a peptide obtained by enzymatic degradation of cytochrome C and purification of a heme-containing moiety. A caudal part of a mouse cerebellum has a large subarachnoid cavity referred to as the cistern magna, into which the microperoxidase was infused, and after 30 minutes the formalin fixing was conducted and the enzyme distribution was visualized by a color development via DAB reaction (peroxidase reaction). It is defined that when the microperoxidase cannot permeate then a barrier corresponding to the blood brain barrier exists. […] It means that there was no barrier corresponding to BBB between the subarachnoid cavity and the brain parenchyma (the boundary is the pia matter) or between the ventricle and the brain parenchyma (the boundary is a ventricular zone). […]

[2] = tested on: inhibitory neuron progenitors (GFP positive cells from GAD67-GFP P0 mouse cerebral cortex); assay: BrdU uptake into DNA of sorted GFP positive cells cultured in neural stem cell culture medium with or without Activin A; assay type: cell-based; details: neural stem cell culture medium with (M+A) or without (M) Activin A at 20 ng/ml; FIG. 10
Experimental: The cerebral cortex of a GAD67-GFP P0 mouse was taken out, treated with a protease (trypsin) to disperse the cells, which were subjected to a cell sorter to obtain GFP positive cells. A neural stem cell culture medium (Neurobasal medium +5% B27 supplement, 20 ng/ml bFGF, 20 ng/ml EGF) was combined with a E18 mouse fetal brain tissue and cultured overnight for conditioning, thereafter the cells were removed and then 5 μg/ml of BrdU was added and the GFP positive cells taken out by the cell sorter were cultured for 2 to 7 days and then fixed. As a result, a part of the GFP positive GABAergic neuron progenitors was confirmed to uptake BrdU in a conditioned neural stem cell culture medium to undergo a cell division (FIG. 9). When the GFP positive cells were cultured in a neural stem cell culture medium which had not been conditioned with the fetal brain tissue, the image as of FIG. 9 was not obtained.
The proliferation may be successful in the neural stem cell culture medium supplemented with essential proliferation factors, thus establishing an essential proliferation factor detection system.

[3] = tested on: inhibitory neuron progenitors in the brain; assay: In vivo infusion of Activin A solution into the brain of juvenile GAD67-GFP mouse, EdU labelling, histological observation; details: P3 GAD67-GFP mouse; 1 μl of 1 μg/ml Activin A solution, one side; EdU i.p. after 30 minutes; examined after 1 week; FIG. 11
Experimental: Thereafter, the animal was maintained for 1 week, anesthetized, fixed, and examined histologically.
Also in order to verify the in vivo effect of Activin A, an Activin A solution was injected directly into the brain of a 3-day old (P3) juvenile mouse. Thirty minutes after this addition, EdU was injected intraperitoneally. […] Then the subsequent issue is a method for delivering Activin A to the inhibitory neuron progenitors inside the brain. Such a method is preferably a method avoiding any damage to the brain, such as penetration of an injection needle.

Row | Molecule | distribution from the cistern via the ventricles to the lateral ventricle and into the brain parenchyma [1] | permeation from the subarachnoid cavity through the pia matter into the brain parenchyma [1] | uptake of BrdU into the DNA (increase in the DNA amount associated with cell division) [2] | EdU positive cells (considered pia progenitors) in the pia matter on the infusion side [3] | number of GFP/EdU double-stained inhibitory neurons in the infused hemisphere compared with the opposite hemisphere [3]
1 | microperoxidase | migrated from the surface of the lateral ventricle to the brain parenchyma | permeated from the pia matter into the brain parenchyma |  |  | 
2 | B1 |  |  | increase in the DNA amount associated with the cell division was evident | a large number | significantly larger number
